B1: 34D1_21B3 (antibody, V domains shown)
VH: QGQLVESGGGVVQPGRSLRLSCAASGFTFSSYTLHWVRQAPGKGLEWVAVIWYDGSNKYYVDSVKGRFTISRDNSKNTLYLQMNSLRAEDTAVYYCAREYGSGSYYNVYYGMDVWGQGTTVTVSS
VL: DIVMTQSPLSLPVTPGEPASISCRSSQSLLHSNGYKYLDWYLQKAGQSPHLLIYLGSNRASGVPDRFSGSGSGTDFTLKISRVEAEDVGFYYCMQTLQIPLTFGGGTKLEIK
notes: Recombinant human antibody
B2: 5D12_C108Y (antibody, V domains shown)
VH: QVQLQESGPGLVKPLGTLSLTCAVSGGSISNSNWWSWVRQPPGKGLEWIGEIYHSGSTNYNPSLKSRVTIALDWSKNQFSLQLRSVTAADTAVYYCARYGSGPFGGDYWGQGTLVTVSS
VL: DIQLTQSPSFLSASVGDRVTISCRASQGISSYLAWYQQKPGKAPKLLIYAASTLQGGVPSRFSGSGSGTTFTLTISSLQPEDFATYYCQQLNTYPFTFGPGTKLEIK
notes: Cys108Tyr (VH) variant of 5D12_18A4
B3: 10C8_C43A (antibody, V domains shown)
VH: QVQLVESGGGVVQPGRSLRISCAASGFTFRSYGMHWVRQAPGKGLEWVAIIWHDESYKYYVDSVKGRFTISRDNSKNTLYLQMNSLRAEDTAVYYCARGDYYGSGSYYDAFDIWGQGTMVTVSS
VL: DIQMTQSPSSLSASVGDRVIITCRASQGISNYLAWFQQKPGKAPNLLIYAASTLRSGVPSRFSGSGSGTDFTLTISSLQPEDVATYYCQKYNSAPYTFGQGTKVEIK
notes: Cys43Ala variant of 10C8_15A1
B4: 32C12-N26S (antibody, V domains shown)
VH: QVQLVESGGGVVQPGRSLRLSCAASGFTFRNYGIHWVRQAPGKGLEWVAVIWYDGSNKFYADSVKGRFTISRDNSKNTLYLQMNSLRVEDTAVYYCAREEGIAVAPFDYWGQGTLVTVSS
VL: DIQMTQSPSSLSASVGDRVAITCRASQSIASYLNWYQQKPGKAPKLLIYGASSLQNGVPSRFSGSGSRTDFTLTISSLQPEDFATYYCQQSYSTEITFGQGTRLEIK
notes: Asn26Ser (VL CDR1) variant of 32C12_21A4
B5: 16H2_17D1 (antibody, V domains shown)
VH: EVQLLESGADLVQPGGSLRLSCAASGFTFSSYAMSWVRQAPGKGLEWVSTIRISGGTTYYADSVKGRFTISRDNSKNTLYLQMNSLRAEDTAVYYCVRDYYNGMDVWGQGTTVTVSS
VL: EIVLTQSPATLSLSPGERATLSCRASQRVSSYLAWYQQKPGQAPRLLIYDASNRATGIPARFSGSGSGTDFTLTISSLEPEDFAVYYCQQRSYWPPAFGQGTKLEIK
notes: Recombinant human antibody
B6: 10C8-15A4 (antibody, V domains shown)
VH: EEQLLESGADLAQPGGSLRLSCAASGFTFSSYAMSWVRQAPGKGLEWVSTIRISGDTTYYADSVKGRFTISRDNSKNTLFLQMNSLRAEDTAVYYCVRDYYNGMDVWGHGTTVTVSS
VL: EIVLTQSPATLSLSPGERATLSCRASQRVSSYLAWYQQKPGQAPRLLIYDASNRATGIPARFSGSGSGTDFTLTISSLEPEDFAVYYCQQRSYWPPAFGQGTKLEIK
notes: Recombinant human antibody
B7: 26C5_15B4 (antibody, V domains shown)
VH: EAQLLESGGGLVQPGGSLRLSCAASGFTFSSYAMSWVRQAPGKGLEWVSTISGSGGSTHYADSVKGRFTISRDNSKNTLYLQMNSLRAEDTAVYYCVRDYYYGMDVWGQGTTVTVSS
VL: EIVLTQSPATLSLSPGERATLSCRASQSVSSYLAWYQQKPGQAPRLLIYDASNRATGIPARFSGSGSGTDFTLTISSLEPEDFAVYYCQQRSYWPPTFGQGTKLEIK
notes: Recombinant human antibody
B8: 17E9_15B1 (antibody, V domains shown)
VH: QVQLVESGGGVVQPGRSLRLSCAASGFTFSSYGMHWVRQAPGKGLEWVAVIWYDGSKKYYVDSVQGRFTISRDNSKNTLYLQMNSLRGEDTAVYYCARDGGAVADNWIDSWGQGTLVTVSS
VL: DIQMTQSPSSLSASVGDRVTLTCRASQNIRSYLNWYQQKPGKAPKLLIFAASSLPSGVPSRFSGSGSVTDFTLTVSSLQPEDFATYSCQQSYSTPYTFGQGTKLEIK
notes: Recombinant human antibody
B9: 41G4_15B6 (antibody, V domains shown)
VH: QVQLVESGGGVVQPGRSLRLSCAASGFTFRNYGMHWVRQAPGKGLEWVAVIWYDGSNKFYADSVKGRFTISRDNSKNTLYLQMNSLRVEDTAVYYCAREEGIAVAPFDYWGQGTLVTVSS
VL: DIQMTQSPSSLSASVGDRVAITCRANQSIASYLNWYQQKPGKAPKLLIYGASSLQNGVPSRFSGSGSRTDFTLTISSLQPEDFATYYCQQSYSTEITFGQGTRLEIK
notes: Recombinant human antibody

Each binder was assayed against T1, huIL1RAP ECD recombinant protein (human, UniProt Q9NPH3 21-367) (assay: Octet BLI, antibody on Protein A biosensor, recombinant huIL1RAP ECD).
T1 construct: also called recombinant human IL1RAP-ECD; recombinant human IL1RAP; not shown: C-terminal histidine tag for purification
Protocol: Affinity: The affinity of antibodies to various recombinant IL1RAP protein was determined on an Octet Red™ instrument. After loading reagents into a 96-well plate, the Octet Red™ with Protein A-conjugated biosensors was programmed as follows: 30 seconds for baseline #1; 120 seconds to immobilize the antibody; 30 seconds for baseline #2; 300 seconds for association of antibody to recombinant IL1RAP; and 300-600 seconds for dissociation of recombinant IL1RAP from the antibody.
With B1 the Kd was 3 nM.
For B2, the Kd was 13 nM.
B3 gave a Kd of 13 nM.
B4 gave a Kd of 19 nM.
In the case of B5, the Kd is reported as 50 nM.
B6 gave a Kd of 1 nM.
Binder B7 has a Kd of 127 nM.
B8 was tested, and the Kd was 21 nM.
B9 showed a Kd of 5 nM.

— patent publication US20260008856A1 (BLUEFIN BIOMEDICINE, published 2026)
